This data set can be described thus: Hydrodynamic size by dynamic light scattering (DLS). Format: physicochemical. On the procedure: Cell culture. Human breast cancer luciferase-overexpressing BT474 and MDA-MB-231 cells were maintained in DMEM medium (Hyclone, Thermo Scientific) supplemented with 10% fetal bovine serum (FBS, Sigma) and 1% penicillin/streptomycin (Corning) at 37° C. in a humidified atmosphere with 5% CO2.^53 • Generation of pRNA nanoparticles. The two strands of pRNA were synthesized with the DNA templates, which were amplified with overlapping primers (Sigma) by PCR methods, using a T7 promoter-controlled in vitro RNA transcription system as previously described^33 (Table 1). […] The hydrodynamic diameter and Tm value of pRNA nanoparticles were determined using dynamic light scattering and TGGE assay, respectively, as previously described.^54 The AFM imaging of the pRNA nanoparticles was performed at the University of Nebraska Medical Center imaging facility as previously reported.^55 Briefly, the pRNA nanoparticles (5 μL) were deposited on APS modified mica ^56 for a total of 2 min of incubation time. […] After washing three times with PBS, the cellular uptake of pRNAs was determined using a BD LSRFortessa™ flow cytometer. • Real-time PCR. […] The expression of MED 1, TFF1, c-Myc, cyclinD1 and MMP-9 was analyzed using GAPDH as the internal reference. • Western blot analyses. […]

B1: pRNA-HER2apt-siMED1: 3-WJ pRNA nanoparticle bearing a HER2-targeting RNA aptamer and two different MED1 siRNAs; strands p1 SEQ ID NO: 3, p2 SEQ ID NO: 4 (nucleic acid)
chain 1: GGACAGUGAAAGUGAGUCAAAGGAUCAAUCAUGGCCAAAGAUGUUACUUUGAGAGCCUU
chain 2: GGCUCUCAAAGUAACAUCUAAGGCCAUGUGUAUGUGGGGGGAGGACGAUGCGGUCUGCUGUGCUUGAUAUGCCCCAGACGACUCGCCCCCCACAUACUUUGUUGAUCCAAUGACUCACUUUCACUGUCCUU
modifications: 2'-F modification; third strand may lack entry; pRNA-HER2apt-siMED1, p1; pRNA-HER2apt-siMED1, p2
In turn, B1 registered a hydrodynamic size of 8.68±1.87 nm.
